Data: the supplement of paper PMC9170038

Test system: K4 kissing-loop RNA reporter
Assay: apparent KD of K4 kissing-loop reporter; higher = weaker reporter binding
Conditions: Eterna round: R107
Method: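 RNA-MaP round R107: designed RNA switches with theophylline, tryptophan, arginine or FMN aptamers are transcribed on-chip within common flanks. They are titrated with a labelled K4 kissing-loop RNA reporter in RNA-MaP buffer (100 mM Tris pH 7.5, 80 mM KCl, 4 mM MgCl2), without ligand or with the indicated ligand. Median apparent KD per design.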

[1] = input ligand: theophylline 20 uM
[2] = input ligand: tryptophan 2.4 mM
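Also: bound reporter read as fluorescence of individual clusters on recovered sequencing chips by microscopy, with normalized cluster intensities fitted with a binding model.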

## UGACAUUGCUCAGAUACCAGACAAGAGGAUCACCCUUGUGCCAAAACGUACUAAAUAAAUGUCCCUUGGCAGCUGAGCAAUGUCU [TheoBX 13]
Input ligand: FMN 200 uM
  apparent KD of K4 kissing-loop reporter: 82.5 nM
Input ligand: arginine 13.2 mM
  apparent KD of K4 kissing-loop reporter: 42.1 nM
Input ligand: none
  apparent KD of K4 kissing-loop reporter: 45.9 nM
[1]
  apparent KD of K4 kissing-loop reporter: 77.4 nM
[2]
  apparent KD of K4 kissing-loop reporter: 58.6 nM

## AGUCGCAGUGAUGUUGCGAUUCCGUUGAGGGAGGAUAUUGGUAAUACAAGAAGGCCCGGCUACGGGAGAUGUUAGCAAUAGGGCC [Exclusion FMN A GF20]
Input ligand: FMN 200 uM
  apparent KD of K4 kissing-loop reporter: 92 nM
Input ligand: arginine 13.2 mM
  apparent KD of K4 kissing-loop reporter: 94.5 nM
Input ligand: none
  apparent KD of K4 kissing-loop reporter: 63 nM
[1]
  apparent KD of K4 kissing-loop reporter: 65 nM
[2]
  apparent KD of K4 kissing-loop reporter: 63.9 nM

## UUAGAGGCCCAGUGAUGUUGGGUGGUUGGGCGAGGACCGGUACGGCCGCCACUCGCCGCGGAACUAUCGGAAUCUCGCUCGGCUA [Aninxearqu]
Input ligand: FMN 200 uM
  apparent KD of K4 kissing-loop reporter: 277 nM
Input ligand: arginine 13.2 mM
  apparent KD of K4 kissing-loop reporter: 233 nM
Input ligand: none
  apparent KD of K4 kissing-loop reporter: 239 nM
[1]
  apparent KD of K4 kissing-loop reporter: 309 nM
[2]
  apparent KD of K4 kissing-loop reporter: 256 nM

## UGGACAUGACUCGAUAAGAGUCAAUGGGAUACCAGUGACGAAAGUCACCCUUGGCAGCUCAACUGCCAGUGAUGUUGGUAGUCCU [Astros-Elimod]
Input ligand: FMN 200 uM
  apparent KD of K4 kissing-loop reporter: 205 nM
Input ligand: arginine 13.2 mM
  apparent KD of K4 kissing-loop reporter: 119 nM
Input ligand: none
  apparent KD of K4 kissing-loop reporter: 207 nM
[1]
  apparent KD of K4 kissing-loop reporter: 157 nM
[2]
  apparent KD of K4 kissing-loop reporter: 125 nM

## CGGCCCGGCGCGGCCGCCACUGUGCCUGGGCGCUUGCCGAGUGAUGUUCGUCGGCGGUCGGGUGGCAGGACCGGGCGCCGGUCCG [BDazzled - #26 SS Tryptophan B]
Input ligand: FMN 200 uM
  apparent KD of K4 kissing-loop reporter: 137 nM
Input ligand: arginine 13.2 mM
  apparent KD of K4 kissing-loop reporter: 129 nM
Input ligand: none
  apparent KD of K4 kissing-loop reporter: 131 nM
[1]
  apparent KD of K4 kissing-loop reporter: 123 nM
[2]
  apparent KD of K4 kissing-loop reporter: 134 nM

## GUAGGAUGAGGAGGAGGAAGAAAUACUGAAGGAGCGCAAAGAAAUGCAGGUAGGUCGCGGUAAAGAAGUAUAGUGAUGUUAUAUA [SSArgA.C]
Input ligand: FMN 200 uM
  apparent KD of K4 kissing-loop reporter: 452 nM
Input ligand: arginine 13.2 mM
  apparent KD of K4 kissing-loop reporter: 450 nM
Input ligand: none
  apparent KD of K4 kissing-loop reporter: 406 nM
[1]
  apparent KD of K4 kissing-loop reporter: 411 nM
[2]
  apparent KD of K4 kissing-loop reporter: 373 nM

## UUCUUGAUGGAAACAUCGAGUAUUACUGAUACCAGUAUCGAUAGAUACCCUUGGCAGCAGAAUCAGUAAUAACGAGUGAUGUUCG [Ex Theophylline A K4 5]
Input ligand: FMN 200 uM
  apparent KD of K4 kissing-loop reporter: 509 nM
Input ligand: arginine 13.2 mM
  apparent KD of K4 kissing-loop reporter: 494 nM
Input ligand: none
  apparent KD of K4 kissing-loop reporter: 505 nM
[1]
  apparent KD of K4 kissing-loop reporter: 567 nM
[2]
  apparent KD of K4 kissing-loop reporter: 480 nM

## CCCGGUCCACGAAGGAGCGCCGUGCAGUGAUGUUGCAGUUAGAUCCAGUGAUGUUUGGGCCGGCAGGUAGGUCGCGUGGCCCGGG [Excusion Arginine B GF 24]
Input ligand: FMN 200 uM
  apparent KD of K4 kissing-loop reporter: 199 nM
Input ligand: arginine 13.2 mM
  apparent KD of K4 kissing-loop reporter: 197 nM
Input ligand: none
  apparent KD of K4 kissing-loop reporter: 250 nM
[1]
  apparent KD of K4 kissing-loop reporter: 197 nM
[2]
  apparent KD of K4 kissing-loop reporter: 188 nM

## AGUUCUUGCCGAAGGAGCGAGGCAGAGUGAUGUUCUGCAAAGGUCGAAAGACCUUAACUGCCUCAGGUAGGUCGCGGCAUGAACA [KL-XARG-B23]
Input ligand: FMN 200 uM
  apparent KD of K4 kissing-loop reporter: 622 nM
Input ligand: arginine 13.2 mM
  apparent KD of K4 kissing-loop reporter: 351 nM
Input ligand: none
  apparent KD of K4 kissing-loop reporter: 624 nM
[1]
  apparent KD of K4 kissing-loop reporter: 602 nM
[2]
  apparent KD of K4 kissing-loop reporter: 580 nM

## AUUCGCAGUGAUGUUGCGAUUCCGUUGAGGGAGGAUAUUGGUAAUACAAGAAGGCCCGGCUGCGGGUGAUGUUCGCAUUAGGGCC [Exclusion FMN A GF18]
Input ligand: FMN 200 uM
  apparent KD of K4 kissing-loop reporter: 151 nM
Input ligand: arginine 13.2 mM
  apparent KD of K4 kissing-loop reporter: 143 nM
Input ligand: none
  apparent KD of K4 kissing-loop reporter: 146 nM
[1]
  apparent KD of K4 kissing-loop reporter: 153 nM
[2]
  apparent KD of K4 kissing-loop reporter: 126 nM

## UAUUAAUAAUUAUUCUAGUGAUGUUAGAUACGAGGACCGGUACGGCCGCCACUCGCUUAUUGGUUUAUAAAUUUUAUAUUAUUUA [JR_SSTryptoA_Sub017]
Input ligand: FMN 200 uM
  apparent KD of K4 kissing-loop reporter: 185 nM
Input ligand: arginine 13.2 mM
  apparent KD of K4 kissing-loop reporter: 207 nM
Input ligand: none
  apparent KD of K4 kissing-loop reporter: 186 nM
[1]
  apparent KD of K4 kissing-loop reporter: 208 nM
[2]
  apparent KD of K4 kissing-loop reporter: 164 nM

## CCAGGUUGCCGCAACGACCUGGAUUUUAGGGAGGAUAUCCAGAGCAGGAGAAGGCCCAGUGAUGUUGGGCCUGUGGAGCCCAUAU [Ararensoza]
Input ligand: FMN 200 uM
  apparent KD of K4 kissing-loop reporter: 274 nM
Input ligand: arginine 13.2 mM
  apparent KD of K4 kissing-loop reporter: 149 nM
Input ligand: none
  apparent KD of K4 kissing-loop reporter: 176 nM
[1]
  apparent KD of K4 kissing-loop reporter: 120 nM
[2]
  apparent KD of K4 kissing-loop reporter: 151 nM

## GGUACAGCGGAAGGAUAUCUGUCAUGGACGAUCGUAGCUUGAGCUCCCUGAGUGAUGUUUAGGAUGAGAGAAGGUCCACUCGUAU [theeternabot_exclusion_KL_FMN_B_2]
Input ligand: FMN 200 uM
  apparent KD of K4 kissing-loop reporter: 673 nM
Input ligand: arginine 13.2 mM
  apparent KD of K4 kissing-loop reporter: 358 nM
Input ligand: none
  apparent KD of K4 kissing-loop reporter: 591 nM
[1]
  apparent KD of K4 kissing-loop reporter: 626 nM
[2]
  apparent KD of K4 kissing-loop reporter: 450 nM

## GGAGAGGUCUUGUUUGGAUGUGUUUAAUGGCGAGGACCGGUACGGCCGCCACUCGGGUGAUGUUAGUGAUGUUGAUGUUGUGAUG ['oo'mullin]
Input ligand: FMN 200 uM
  apparent KD of K4 kissing-loop reporter: 137 nM
Input ligand: arginine 13.2 mM
  apparent KD of K4 kissing-loop reporter: 131 nM
Input ligand: none
  apparent KD of K4 kissing-loop reporter: 125 nM
[1]
  apparent KD of K4 kissing-loop reporter: 219 nM
[2]
  apparent KD of K4 kissing-loop reporter: 116 nM

## AUAGGAGUGAUGUUCCUUAGUCUCUCCGAUACCAGUAUGGAAACAUACCCUUGGCAGCGGUAGACCGCAGAUUAGGAAACUAGUC [Theophylline A K4 3]
Input ligand: FMN 200 uM
  apparent KD of K4 kissing-loop reporter: 657 nM
Input ligand: arginine 13.2 mM
  apparent KD of K4 kissing-loop reporter: 726 nM
Input ligand: none
  apparent KD of K4 kissing-loop reporter: 785 nM
[1]
  apparent KD of K4 kissing-loop reporter: 503 nM
[2]
  apparent KD of K4 kissing-loop reporter: 610 nM

## AGAUGUCUCUGGGAUACCAGUCGGAGUCUCAGGGCUCGGAGUGAUGUUCUGGGAUGUUUCGGCCCUUGGCAGCCCUGGGACUCCC [#2 Exclusion - Theophylline B Attempt #27 (HarryS)]
Input ligand: FMN 200 uM
  apparent KD of K4 kissing-loop reporter: 724 nM
Input ligand: arginine 13.2 mM
  apparent KD of K4 kissing-loop reporter: 514 nM
Input ligand: none
  apparent KD of K4 kissing-loop reporter: 649 nM
[1]
  apparent KD of K4 kissing-loop reporter: 740 nM
[2]
  apparent KD of K4 kissing-loop reporter: 542 nM

## ACAUCGGUUGAGAGUGAUGUUCCUUGUGUUCGAGGACCGGUACGGCCGCCACUCGGGUAGAAAAUAACAGAUGUGUUUCCUUUUU [BDazzled - #18 SS Tryptophan A]
Input ligand: FMN 200 uM
  apparent KD of K4 kissing-loop reporter: 164 nM
Input ligand: arginine 13.2 mM
  apparent KD of K4 kissing-loop reporter: 80.5 nM
Input ligand: none
  apparent KD of K4 kissing-loop reporter: 171 nM
[1]
  apparent KD of K4 kissing-loop reporter: 181 nM
[2]
  apparent KD of K4 kissing-loop reporter: 209 nM

## AAUAAUGGAGUGAUGUUCCAGUAAUGGGAUACCAGACAUGAAAAUGUCCCUUGGCAGCUCAAAGGUCUAGUGAUGUUAGAAAGAA [KL-SSTheo-A5 #Double Kiss]
Input ligand: FMN 200 uM
  apparent KD of K4 kissing-loop reporter: 273 nM
Input ligand: arginine 13.2 mM
  apparent KD of K4 kissing-loop reporter: 300 nM
Input ligand: none
  apparent KD of K4 kissing-loop reporter: 310 nM
[1]
  apparent KD of K4 kissing-loop reporter: 282 nM
[2]
  apparent KD of K4 kissing-loop reporter: 232 nM

## AACGGCCAGUCGGCCGCCACUCGAUGCAGUGAUGUUGCUAACUUUCUAAAAGAGUGAUGUUCAUGGAGGACCGGGACUAAUGUAA [#29 K4 Tryptophan B Exclusion]
Input ligand: FMN 200 uM
  apparent KD of K4 kissing-loop reporter: 349 nM
Input ligand: arginine 13.2 mM
  apparent KD of K4 kissing-loop reporter: 298 nM
Input ligand: none
  apparent KD of K4 kissing-loop reporter: 346 nM
[1]
  apparent KD of K4 kissing-loop reporter: 382 nM
[2]
  apparent KD of K4 kissing-loop reporter: 228 nM

## CCCUAAAUAUGCAGUGAUGUUGCAACUGAUACCAGUAUCGAAAGAUACCCUUGGCAGCGGAAAACCGCUACGUAAUUUAAUAGGG [Ex Theophylline A K4 20]
Input ligand: FMN 200 uM
  apparent KD of K4 kissing-loop reporter: 294 nM
Input ligand: arginine 13.2 mM
  apparent KD of K4 kissing-loop reporter: 393 nM
Input ligand: none
  apparent KD of K4 kissing-loop reporter: 387 nM
[1]
  apparent KD of K4 kissing-loop reporter: 402 nM
[2]
  apparent KD of K4 kissing-loop reporter: 285 nM

## UGUCGAGUGAUGUUCGAUUUGGUGCAUGCAGAGGAUAUAGGGUGGGCUAGAAGGCUGAAAAGUGCUUCGAGUGAUGUUCGAAGUU [Exclusion FMN A GF10]
Input ligand: FMN 200 uM
  apparent KD of K4 kissing-loop reporter: 117 nM
Input ligand: arginine 13.2 mM
  apparent KD of K4 kissing-loop reporter: 113 nM
Input ligand: none
  apparent KD of K4 kissing-loop reporter: 100 nM
[1]
  apparent KD of K4 kissing-loop reporter: 100 nM
[2]
  apparent KD of K4 kissing-loop reporter: 97.3 nM

## UAUGUACGCGGGUAACGGUACAUCGAGGAAGGAGCGUGCGCAGGCACAGGUAGGUCGCCUCAGCGCACGAGUGAUGUUCGUGGGC [Rere]
Input ligand: FMN 200 uM
  apparent KD of K4 kissing-loop reporter: 221 nM
Input ligand: arginine 13.2 mM
  apparent KD of K4 kissing-loop reporter: 243 nM
Input ligand: none
  apparent KD of K4 kissing-loop reporter: 271 nM
[1]
  apparent KD of K4 kissing-loop reporter: 298 nM
[2]
  apparent KD of K4 kissing-loop reporter: 280 nM
